The record followed here is the DeepSol protein solubility set.

The data set can be described thus: soluble on expression in E. coli; label from the status in PepcDB or PDB records.
For the sequence “MGSLKIYPSKLSGDVKIPPSKSMAHRAVICSSLSNGKSRISNIDFSDDIIATIRAMTSLGAIIEKKEDILEISGIFSKEGILNRENQLNQPKLTIDCNESGSTLRFLVPISLAFDGVKRFIGRGNLGKRPLDTYYEIFDRQNIKYSYKENQLDLIISGKLKPDEFRVKGNISSQFITGLLFILPTLESDSKIIITTELESKGYLDLTLSTIKDFGVEIINNNYKEFIIKGNQTYKARDYKVEGDYSQGAFYLSADAIGEDISILDLKEDSLQGDSEVVEILSRMGMEILREGNKIKGITNGLNGTLIDASQCPDIIPVLSVVASLSIGKTTIINAGRLRIKECDRLHAINVELSKLGANIEEKEDSLIIEGVSKLNGGVEVWSHKDHRIAMTLAIASCRCDKPIILKDFECVSKSYPHFFKDFKMLGGRIDEWNMGK”, the “soluble on expression in E. coli” value is “not soluble”.
For “MGSLVREWVGFQQFPAATQEKLIEFFGKLKQKYLIVKMIQGAIRNDIKTSGKPL” the value was “not soluble”; for “MGSMRICIFMARGLEGCGVTKFSLEQRDWFIKNGHEVTLVYAKDKSFTRTSSHDHKSFSIPVILAKEYDKALKLVNDCDILIINSVPATSVQEATINNYKKLLDNIKPSIRVVVYQHDHSVLSLRRNLGLEETVRRADVIFSHSDNGDFNKVLMKEWYPETVSLFDDIEEAPTVYNFQPPMDIVKVRSTYWKDVSEINMNINRWIGRTTTWKGFYQMFDFHEKFLKPAGKSTVMEGLERSPAFIAIKEKGIPYEYYGNREIDKMNLAPNQPAQILDCYINSEMLERMSKSGFGYQLSKLNQKYLQRSLEYTHLELGACGTIPVFWKSTGENLKFRVDNTPLTSHDSGIIWFDENDMESTFERIKELSSDRALYDREREKAYEFLYQHQDSSFCFKEQFDIITK”, “soluble”.
For “MGSRCVAAANCPFGKLPGQSCVRKSDPSLAFNIPSNQDNCPMGQVCITAGESQVGHCCPVICPLNTTTDTRYSCDPDAAPALKCPSDSHYCYFLSGNFNKIQNFICNANSDGSFSQAACCRRPCNAMAPNALYVDYHCMPRGQLNSACTSNAQCGGGEGMECMKGQCQCQQNFHPAVDVLTNPLKNPSQSCSRDCESENLSKDTSCMKAVPLNSLCFIQKQCPQNSGCYRGRCMCRCGFAAKNGKCVEIPAPPTTTSAPAPAIIPGVPINPGNDLFKLFGQFLGAGNGGGGLNFG” the value was “not soluble”; for “MGSSHHHHHHDYDIPTTENLYFQGHMKVKILVDSTADVPFSWMEKYDIDSIPLYVVWEDGRSEPDEREPEEIMNFYKRIREAGSVPKTSQPSVEDFKKRYLKYKEEDYDVVLVLTLSSKLSGTYNSAVLASKEVDIPVYVVDTLLASGAIPLPARVAREMLENGATIEEVLKKLDERMKNKDFKAIFYVSNFDYLVKGGRVSKFQGFVGNLLKIRVCLHIENGELIPYRKVRGDKKAIEALIEKLREDTPEGSKLRVIGVHADNEAGVVELLNTLRKSYEVVDEIISPMGKVITTHVGPGTVGFGIEVLERKR”, “soluble”.
As to “MGSSHHHHHHGGTGENLYFQGGSGRDREVVECLLGMEQWLRELNRPLASAGVGGSVDVGASSSLLSGFPPCMEGDALRSAYRSALSELRLLVLGVLNTMPWWRVVETVAGNPPAAQTGGARTASAGGGDNSSSEAGAARVAARHAGGWDRSAAALHVITRWHARLQIAFERVCLVLIDQSQQTVRGVLEVLLKPCQLRPPVRDGARRSIPSDSFIRVLNAVATKYSPVYVVELLEGCIADFMPRRRWAERRHHVACTAVLLYLALEGHTPAYHPQLGNSYSLQRAVRLLTSLRSRRADGRCALSGSPWLLPHATGSYSLTLP”, the “soluble on expression in E. coli” value is recorded as “not soluble”.
On to “MGSSHHHHHHSSASMTGGQQMGRTLYDDDDKDRWGSELETGRQKARGAATRARQKQRASLETMDKAVQRFRLQNPDLDSEALLTLPLLQLVQKLQSGELSPEAVFFTYLGKAWEVNKGTNCVTSYLTDCETQLSQAPRQGLLYGVPVSLKECFSYKGHDSTLGLSLNEGMPSESDCVVVQVLKLQGAVPFVHTNVPQSMFSYDCSNPLFGQTMNPWKSSKSPGGSSGGEGALIGSGGSPLGLGTDIGGSIRFPSAFCGICGLKPTGNRLSKSGLKGCVYGQTAVQLSLGPMARDVESLALCLKALLCEHLFTLDPTVPPLPFREEVYRSSRPLRVGYYETDNYTMPSPAMRRALIETKQRLEAAGHTLIPFLPNNIPYALEVLSTGGLFSDGGRSFLQNFKGDFVDPCLGDLILILRLPSWFKRLLSLLLKPLFPRLAAFLNNMRPRSAEKLWKLQHEIEMYRQSVIAQWKAMNLDVLLTPMLGPALDLNTPGRATGAVSYTMLYNCLDFPAGVVPVTTVTAEDDAQMELYKGYFGDIWDIILKKAMKNSVGLPVAVQCVALPWQEELCLRFMREVEQLMTPQKQPS”, for which the “soluble on expression in E. coli” value is “soluble”.
For “MGSSHHHHHHSSGLEVLFQGPHMDFDVKRKYFRQELERLDEGLRKEDMAVHVRRDHVFEDSYRELHRKSPEEMKNRLYIVFEGEEGQDAGGLLREWYMIISREMFNPMYALFRTSPGDRVTYTINPSSHANPNHLSYFKFVGRIVAKAVYDNRLLECYFTRSFYKHILGKSVRYTDMESEDYHFYQGLVYLLENDVSTLGYDLTFSTEVQEFGVAEVRDLKPNGANILVTEENKKEYVHLVCQMRMTGAIRKQLAAFLEGFYEIIPKRLISIFTEQELELLISGLPTIDIDDLKSNTEYHKYQSNSIQIQWFWRALRSFDQADRAKFLQFVTGTSKVPLQGFAALEGMNGIQKFQIHRDDRSTDRLPSAHTCFNQLDLPAYESFEKLRHMLLLAIQEASEGFGLA” the value was “soluble”; for “MGSSHHHHHHSSGLVPRGSHMASMAGLGHPAAFGRATHAVVRALPESLGQHALRSAKGEEVDVARAERQHQLYVGVLGSKLGLQVVELPADESLPDCVFVEDVAVVCEETALITRPGAPSRRKEVDMMKEALEKLQLNIVEMKDENATLDGGDVLFTGREFFVGLSKRTNQRGAEILADTFKDYAVSTVPVADGLHLKSFCSMAGPNLIAIGSSESAQKALKIMQQMSDHRYDKLTVPDDIAANCIYLNIPNKGHVLLHRTPEEYPESAKVYEKLKDHMLIPVSMSELEKVDGLLTCCSVLINKKVDS”, “soluble”; for “MGSSHHHHHHSSGLVPRGSHMEAIGVLMMCPMSTYLEQELDKRFKLFRYWTQPAQRDFLALQAESIRAVVGNSNAGADAELIDALPKLEIVSSFSVGLDKVDLIKCEEKGVRVTNTPDVLTDDVADLAIGLILAVLRRICECDKYVRRGAWKFGDFKLTTKFSGKRVGIIGLGRIGLAVAERAEAFDCPISYFSRSKKPNTNYTYYGSVVELASNSDILVVACPLTPETTHIINREVIDALGPKGVLINIGRGPHVDEPELVSALVEGRLGGAGLDVFEREPEVPEKLFGLENVVLLPHVGSGTVETRKVMADLVVGNLEAHFSGKPLLTPVV”, “soluble”.
For “MGSSHHHHHHSSGLVPRGSHMEFKVIAEYFDKLEKISSRLQLTALLADLLSKSDKTIIDKVVYIIQGKLWPDFLGYPELGIGEKFLIKAISIATNTDENSVENLYKTIGDLGEVARRLKSKQQSTGILGFLGTTSKESLTVDEVYSTLSKVALTTGEGSRDLKIRLLAGLLKKADPLEAKFLVRFVEGRLRVGIGDATVLDAMAIAFGGGQSASEIIERAYNLRADLGNIAKIIVEKGIEALKTLKPQVGIPIRPMLAERLSNPEEILKKMGGNAIVDYKYDGERAQIHKKEDKIFIFSRRLENITSQYPDVVDYVSKYIEGKEFIIEGEIVAIDPESGEMRPFQELMHRKRKSDIYEAIKEYPVNVFLFDLMYYEDVDYTTKPLEARRKLLESIVKPNDYVKIAHHIQANNVEDLKSFFYRAISEGGEGVMVKAIGKDAIYQAGARGWLWIKLKRDYQSEMADTVDLVVVGGFYGKGKRGGKISSLLMAAYNPKTDSFESVCKVASGFSDEQLDELQKKLMEIKRDVKHPRVNSKMEPDIWVEPVYVAEIIGSEITISPLHTCCQDVVEKDAGLSIRFPRFIRWRDDKSPEDATTTDEILEMYNKQPKKKIESPAVDESV” the value was “soluble”.
With “MGSSHHHHHHSSGLVPRGSHMIRYSEVTPYHVTSVWTKGVTPPANFTQGEDVFHAPYVANQGWYDITKTFNGKDDLLSGAATAGNMLHWWFDQNKDQIKRYLEEHPEKQKINFNGEQMFDVKEAIDTKNHQLDSKLFEYFKEKAFPYLSTKHLGVFPDHVIDMFINGYRLSLTNHGPTPVKEGSKDPRGGIFDAVFTRGDQSKLLTSRHDFKEKNLKEISDLIKKELTEGKALGLSHTYANVRINHVINLWGADFDSNGNLKAIYVTDSDSNASIGMKKYFVGVNSAGKVAISAKEIKEDNIGAQVLGLFTLSTGQDSWNQTN” the entry was “soluble”.
“MGSSHHHHHHSSGLVPRGSHMKKNSLALSLTADQMVSALLDAEPPILYSEYDPTRPFSEASMMGLLTNLADRELVHMINWAKRVPGFVDLTLHDQVHLLECAWLEILMIGLVWRSMEHPVKLLFAPNLLLDRNQGKCVEGMVEIFDMLLATSSRFRMMNLQGEEFVCLKSIILLNSGVYTFLSSTLKSLEEKDHIHRVLDKITDTLIHLMAKAGLTLQQQHQRLAQLLLILSHIRHMSNKGMEHLYSMKCKNVVPLYDLLLEMLDAHRLHAP”: the “soluble on expression in E. coli” value is “not soluble”.
With “MGSSHHHHHHSSGLVPRGSHMKMSFRWYGKKDPVTLEEIKAIPGMQGIVTAVYDVPVGQAWPLENILELKKMVEEAGLEITVIESIPVHEDIKQGKPNRDALIENYKTSIRNVGAAGIPVVCYNFMPVFDWTRSDLHHPLPDGSTSLAFLKSDLAGVDPVADDLNLPGWDSSYSKEEMKAIIENYRQNISEEDLWANLEYFIKAILPTAEEAGVKMAIHPDDPPYGIFGLPRIITGQEAVERFLNLYDSEHNGITMCVGSYASDPKNDVLAMTEYALKRNRINFMHTRNVTAGAWGFQETAHLSQAGDIDMNAVVKLLVDYDWQGSLRPDHGRRIWGDQTKTPGYGLYDRALGATYFNGLYEANMRAAGKTPDFGIKAKTVGTKEG” the entry was “soluble”.
For “MGSSHHHHHHSSGLVPRGSHMNTNSNTMVMNDANQAQITATFTKKILAHLDDPDSNKLAQFVQLFNPNNCRIIFNATPFAQATVFLQMWQNQVVQTQHALTGVDYHAIPGSGTLICNVNCKVRFDESGRDKMGQDATVPIQPNNTGNRNRPNDMNKPRPLWGPYFGISLQLIIDDRIFRNDFNGVISGFNYNMVYKPEDSLLKI” the value was “soluble”; for “MGSSHHHHHHSSGLVPRGSHMRIGMVCPYSFDVPGGVQSHVLQLAEVLRDAGHEVSVLAPASPHVKLPDYVVSGGKAVPIPYNGSVARLRFGPATHRKVKKWIAEGDFDVLHIHEPNAPSLSMLALQAAEGPIVATFHTSTTKSLTLSVFQGILRPYHEKIIGRIAVSDLARRWQMEALGSDAVEIPNGVDVASFADAPLLDGYPREGRTVLFLGRYDEPRKGMAVLLAALPKLVARFPDVEILIVGRGDEDELREQAGDLAGHLRFLGQVDDATKASAMRSADVYCAPHLGGESFGIVLVEAMAAGTAVVASDLDAFRRVLADGDAGRLVPVDDADGMAAALIGILEDDQLRAGYVARASERVHRYDWSVVSAQIMRVYETVSGAGIKVQVSGAANRDETAGESV”, “soluble”.
With “MGSSHHHHHHSSGLVPRGSHMSKARVYADVNVLRPKEYWDYEALTVQWGEQDDYEVVRKVGRGKYSEVFEGINVNNNEKCIIKILKPVKKKKIKREIKILQNLCGGPNIVKLLDIVRDQHSKTPSLIFEYVNNTDFKVLYPTLTDYDIRYYIYELLKALDYCHSQGIMHRDVKPHNVMIDHELRKLRLIDWGLAEFYHPGKEYNVRVASRYFKGPELLVDLQDYDYSLDMWSLGCMFAGMIFRKEPFFYGHDNHDQLVKIAKVLGTDGLNAYLNKYRIELDPQLEALVGRHSRKPWLKFMNADNQHLVSPEAIDFLDKLLRYDHQERLTALEAMTHPYFQQVRAAENSRTRA” the entry was “soluble”.
